In PMC4592603, “Cloning, Expression, Sequence Analysis and Homology Modeling of the Prolyl Endoprotease from Eurygaster integriceps Puton” (Insects, 2014) one finds Km data, which are given here for 1 protein.

As a reminder, the Km is the substrate concentration at which the rate is half of its maximum.

Substrate in this series: O=C(NCC(=O)N1CCC[C@H]1C(=O)Nc1ccc([N+](=O)[O-])cc1)OCc1ccccc1
Nature of the series: purified protein. Type of series: biochemical, Eurygaster integriceps. Conditions: 25 mM ethanolamine, pH 8.5, 0.1 M NaCl, 1 mM DTT, 37 °C, abstract prints 210 ± 53 µM.

B1: spPEP (sunn pest prolyl endoprotease) (Eurygaster integriceps) (protein)
chain: MKKFQYPEARRDETIKETFFGIEVADPYRWLEDPDSEETKNFVDAQNSISEPYLKGCPARDKIKARLTQMLDYPKYSPPEKEGNHYFYFKNTGLQNHSVLYMQDSLDGPSKVFLDPNTFSSDGTVALTSTSFSEDGSIMGYTVSKSGSDWCTIHFRRVDTGEDYPEELKFVKFGHAAWTHDNLGVFYTRFPEVEGKSDGSETSQNRNQKIYYHKVGTPQSEDILVVELDDPEYIYTVCVSDCGRGVVILPSKFCHNNLVYFSDLSTLKDGIKGKLDVTCIVDKFEADYEFVANTGSKFVFRTNKNAHNYKLVVIDFENHSEENWVTLVPEHPTDVLEQAVSVAQDKLVLCYIRDVKNTLDIHSLVDGSLIRKIPVPIGTVSSISGSKKHSEVFYTFISFTSPGTIYRCDLSQSPIPDPEVFRQITIPGYDPSMFEEKQVFYLSKDGTRIPMFLVHKKVLEQNGKNPCLVYGYGGFNISLLPMFSTIRLVFVQYFNAVFASANIRGGGEYGEKWHDGGRLLNKQNSFDDFIAAGEYLIAEKYTNKSCLAIQGASNGGLLIGASVKPPYWLLEDPEYIYTVCVSDCGRWAVILPSKFCYNNLVYFSVLFQEEHFKNVLKYSPLHNIRVPEDQYPALLLLTASHDDRVVPLHSLKYIAQLQHVMRDNPKQENPLLIQVETKAGHGAGKPTNKRIEEQVDILCFLMNSMNLKFIE
notes: full-length ORF (no signal peptide identified), N-terminal FLAG and 10xHis tag, pNYCOMPS-LIC vector, E. coli BL21(DE3), soluble fraction, Ni-NTA, about 80 kDa, tags not reported cut
Regarding B1, the Km was found to be 211 ± 53 µM.
